This is an account of results in patent publication EP4755919A1, “ANTI-TROP2 ANTIBODY, CONJUGATE COMPRISING SAID ANTIBODY, AND USE THEREOF” (Hanano Technologies Limited, priority 2023, dated 2024).

Substitutions are numbered along the chain they refer to.

One data set deals with serum albumin (UniProt P02768). The data set is described as follows: relative binding activity against HuNb3-11; method not described.
Data set [1] concerns the target T1, Trop2 (UniProt P09758 27-323, limits assumed).
T1 construct: whole, on cells; also called TACSTD2; Trop2 on A431 cells
T1 sequence (looked up): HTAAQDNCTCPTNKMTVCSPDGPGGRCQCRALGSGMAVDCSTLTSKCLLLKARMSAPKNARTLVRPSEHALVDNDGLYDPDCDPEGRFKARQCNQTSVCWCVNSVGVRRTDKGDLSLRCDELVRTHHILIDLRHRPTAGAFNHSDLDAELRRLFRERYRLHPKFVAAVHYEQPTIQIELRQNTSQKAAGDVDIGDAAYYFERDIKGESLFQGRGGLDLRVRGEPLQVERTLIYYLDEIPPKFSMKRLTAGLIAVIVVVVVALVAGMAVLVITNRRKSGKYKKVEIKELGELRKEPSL
In words: flow cytometry on A431 and BxPC3 cells, human albumin added during incubation, goat anti-VHH and Alexa Fluor488 donkey anti-goat detection. In general terms: In flow cytometry, cells or beads pass a laser one at a time.

Data set [2] has as its system BxPC3 pancreatic cancer cells. In words: Anti-tumor activity in BxPC3 tumor-bearing mice. In kind it is in vivo. The conditions noted are these: NCG mice. The protocol:
NCG mice were inoculated with BxPC3 pancreatic cancer cells for tumorigenesis. When the tumors grew to about 80mm^3, they were divided into groups, with 6 mice in each group. Three dose groups were set up to be intraperitoneally injected with HuNb1-Alb Nb1-MMAE at 0.2mg/kg, 1mg/kg and 5mg/kg, three times a week, respectively. The negative control group was intraperitoneally injected with PBS. The positive control group was intraperitoneally injected with 150mg/kg Gemcitabine, three times a week.

Data set [3] concerns BxPC3 cells. In words: Cell killing activity on BxPC3 cells by Cell Counting Kit-8 (CCK8). In kind it is cell-based. The conditions noted are these: pre-incubated with human serum albumin, 96 hours culture, CCK8 OD450 (FIG.8). The protocol: (§1) The long-acting Trop2 single domain antibody conjugated drug HuNb1-Alb […]-MMAE was gradiently diluted in cell medium and incubated with human serum albumin for 20 minutes, then co-incubated with A431 cells and BxPC3 cells, respectively. Cell Counting Kit-8 was added after 96 hours of culture at 37°C in 5% CO2 incubator, and the cells were incubated in the incubator for 2.5 hours. After reading the data (OD450) in the microplate reader, IC50 was calculated.

For data set [4], the system named is A431 cells. The data set is described as follows: Binding activity of long-acting Trop2 antibody conjugated drug to A431 cells by flow cytometry. On the procedure:
(§2) Flow cytometry was used to detect the binding activity of these candidate single domain antibodies to Trop2 high expression cell line A431. After the cultured A431 cells were digested with trypsin and neutralized in complete medium, the cells were washed once with PBS, collected and counted, and the cells were added to a 96-well V-bottom plate, 2E5 cells/well. Diluted candidate single domain antibodies and control antibodies BMK1, BMK2 and BMK3 (control antibody sequences are all referred to patent CN111518212B, where BMK1 sequence is the amino acid sequence as set forth in SEQ ID NO: 78, BMK2 sequence is the amino acid sequence as set forth in SEQ ID NO: 65, and BMK3 sequence is the amino acid sequence as set forth in SEQ ID NO: 68) were added to the plate respectively and incubated at 4°C for 40min. After centrifugation, cells were washed with PBS twice, and APC anti-HA antibody was added to incubate at 4°C for 40min. […] APC signal of each sample was detected by flow cytometry.
(§3) The long-acting Trop2 antibody conjugated drug HuNb1-Alb Nb1-MMAE was incubated with A431 and BxPC3 cells, and the binding activity of the antibody conjugated drug to the cells was detected by flow cytometry. […] After centrifugation, the cells were washed and the supernatant was removed, and the cells were resuspended in PBS and then the Alexa Fluor488 signal of each sample was detected by flow cytometry.

In data set [5] the test system is A431 cells. In words: Cell killing activity on A431 cells by Cell Counting Kit-8 (CCK8). The format is cell-based. The conditions noted are these: pre-incubated with human serum albumin, 96 hours culture, CCK8 OD450 (FIG.7). The protocol:
as §1
On the technique in general: Tetrazolium assays rely on reduction of a dye to a coloured formazan, in cell work by metabolically active cells.

In data set [6] the test system is BxPC3 cells. In words: Binding activity of long-acting Trop2 antibody conjugated drug to BxPC3 cells by flow cytometry. On the procedure:
as §2, §3

In data set [7] the target is T1, Trop2. The data set is described as follows: flow cytometry on A431 cells, APC anti-HA detection.
For data set [8], the target named is T1, Trop2. The data set is described as follows: flow cytometry on BxPC3 cells, APC anti-HA detection.

serum albumin, sequence (P02768 25-609 limits assumed): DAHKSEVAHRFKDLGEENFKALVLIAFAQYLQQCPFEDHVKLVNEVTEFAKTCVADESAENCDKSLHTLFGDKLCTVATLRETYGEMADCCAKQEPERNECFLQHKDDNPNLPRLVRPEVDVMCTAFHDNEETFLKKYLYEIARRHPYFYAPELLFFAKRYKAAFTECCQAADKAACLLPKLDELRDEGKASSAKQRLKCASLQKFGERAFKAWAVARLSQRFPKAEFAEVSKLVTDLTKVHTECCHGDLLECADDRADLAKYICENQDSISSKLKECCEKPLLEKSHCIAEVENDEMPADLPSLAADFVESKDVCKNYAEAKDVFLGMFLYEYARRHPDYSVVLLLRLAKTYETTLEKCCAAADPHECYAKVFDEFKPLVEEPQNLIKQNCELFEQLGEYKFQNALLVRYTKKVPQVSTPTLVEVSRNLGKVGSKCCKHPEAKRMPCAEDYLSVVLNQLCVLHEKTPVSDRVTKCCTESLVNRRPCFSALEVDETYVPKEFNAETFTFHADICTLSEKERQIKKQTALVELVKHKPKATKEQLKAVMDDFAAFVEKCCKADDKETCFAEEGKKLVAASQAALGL

B1: anti-serum albumin single domain antibody Alb Nb1 (VHH)
VHH: EVQLQESGGGLVEPGGSLRLSCVASGFTFQHYAMSWVRQAPGKGLEWVSSISLVGGGTSYADSVKGRFTMSRDNAKNTLYLQLNSLKSEDTAMYYCVRGWHPDVPRPLGQGTLVTVSS
B1 had a Relative binding activity EC50 in the data set with serum albumin of 92%.

B2: anti-serum albumin single domain antibody Alb Nb4 (VHH)
VHH: B1 VHH with L53T
For B2, the Relative binding activity EC50 with serum albumin came out at 71%.

B3: anti-serum albumin single domain antibody Alb Nb3 (VHH)
VHH: B1 VHH with L53I
Consider B3, for which, in the data set with serum albumin, the Relative binding activity EC50 stood at 80%.

B4: anti-serum albumin single domain antibody Alb Nb2 (VHH)
VHH: B1 VHH with L53V
Turning to B4, the Relative binding activity EC50 in the data set with serum albumin stood at 95%.

B5: long-acting Trop2 antibody conjugated drug HuNb1-Alb Nb1-MMAE (bispecific antibody)
chain: EVQLLESGGGLVQPGGSLRLSCAASGFTFSRACMGWFRQASGKGLEGVAQVYTGGGSTSYADSVKGRFTISQDNAKNTLYLQMNSLKPEDTAVYYCAVGQPYGACYYSDLAPADFSYWGQGTLVTVSSGGGGSGGGGSGGGGSGGGGSEVQLQESGGGLVEPGGSLRLSCVASGFTFQHYAMSWVRQAPGKGLEWVSSISLVGGGTSYADSVKGRFTMSRDNAKNTLYLQLNSLKSEDTAMYYCVRGWHPDVPRPLGQGTLVTVSSGGC
modifications: vc-PAB-MMAE (Monomethylauristatin E) coupled to the free cysteine (C) at the C-terminus
notes: also called HuNb1-Alb Nb1-GGC conjugated with vc-PAB-MMAE
On to B5, for which the binding result in the data set with Trop2 [1] is “binds”.

B6: HuNb1-Alb Nb1-MMAE: long-acting Trop2 antibody conjugated drug: HuNb1-Alb Nb1-GGC coupled with vc-PAB-MMAE (Monomethylauristatin E) (conjugate)
chain: B5 chain
Turning to B6, the “tumor of high-dose group” value in data set [2] (high-dose group (5mg/kg intraperitoneal, three times a week), after treatment for 20 days) is given as “completely fades”. Besides, the “treatment effect compared with Gemcitabine” value in [2] (high-dose group versus 150mg/kg Gemcitabine intraperitoneal, three times a week) is listed as “significantly better than the treatment effect of Gemcitabine”. Further, the “BXPC3 tumor killing activity” value in data set [2] (intraperitoneal 0.2mg/kg, 1mg/kg and 5mg/kg, three times a week (FIG.9)) is given as “significant BXPC3 tumor killing activity”. Moreover, the “killing effect on BxPC3 cells” value in the data set with BxPC3 cells [3] is “significant killing effect”. In addition, in the data set with A431 cells [4] (flow cytometry, Alexa Fluor488 signal (FIG.5)), the “binding activity to A431 cells” value is on record as “good binding activity”. Moreover, the “effect of the presence of HSA protein on binding to A431 cells” value in the data set on A431 cells [4] (human blood albumin added during incubation (FIG.5)) is given as “not affected by the presence of HSA protein”. Further, the “killing effect on A431 cells” value in the data set with A431 cells [5] was “significant killing effect”. Moreover, the “binding activity to BxPC3 cells” value with BxPC3 cells [6] (flow cytometry, Alexa Fluor488 signal (FIG.6)) was “good binding activity”. In the data set on BxPC3 cells [6] (human blood albumin added during incubation (FIG.6)), the “effect of the presence of HSA protein on binding to BxPC3 cells” value is “not affected by the presence of HSA protein”.

B7: humanized Trop2 single domain antibody HuNb2 (VHH)
VHH: EVQLLESGGGLVQPGGSLRLSCVDSGSTYSRRYMGWFRRAPGKGLEGVSVISPYGDSTYYADSVKDRFTISRDNAKNTVYLQMNSLKPEDTAMYYCAASWPYQTASLDAMDFTDWGQGTLVTVSS
notes: also called Trop2 HuNb2; not shown: HA tag used for APC anti-HA detection
Regarding B7, in the data set with Trop2 [7], the binding result was “binds”.

B8: Trop2 single domain antibody Nb1 (VHH)
VHH: QVQLQESGGGSVQAGGSLRLSCAASGFTFSRACMGWFRQASGKEREGVAQVYTGGGSTSYADSVKGRFTISQDNAKNTLYLQMNSLKPEDTAVYYCAVGQPYGACYYSDLAPADFSYWGQGTQVTVSS
notes: Camel-derived VHH expressed and purified from E. coli (phage vector pMECS); detected through an HA tag; also called Trop2 Nb1; candidate antibody Nb1; not shown: HA tag (and any other vector-derived tag from pMECS) used for APC anti-HA detection
In the case of B8, the binding result with Trop2 [7] was “binds”.

B9: humanized Trop2 single domain antibody HuNb1 (VHH)
VHH: B8 VHH with Q1E, Q5L, S11L, A14P, E44G, R45L, Q123L
notes: Humanized form of Nb1; also called Trop2 HuNb1; not shown: HA tag used for APC anti-HA detection
With B9, the binding result with Trop2 [8] was “binds”.
